Data reported in patent publication US20110159021A1 (Dana-Farber, published 2011).

B1: SP XBP1 196-204 (GILDNLDPV) (peptide)
peptide: GILDNLDPV
notes: also called SP XBP1 #1 peptide; SP XBP1 #1p
B2: XBP1 189-197 (ILAVLTLQI) (peptide)
peptide: ILAVLTLQI
notes: Native peptide of non-spliced XBP1, synthetic; also called XBP1 #3 peptide
B3: SP XBP1 367-375 (ELFPQLISV) (peptide)
peptide: ELFPQLISV
notes: Native peptide of spliced XBP1, synthetic; also called SP XBP1 #3 peptide; SP XBP1 #3p
B4: heteroclitic spliced XBP1 367-375 (YLFPQLISV) (peptide)
peptide: YLFPQLISV
notes: Heteroclitic variant of the spliced XBP1 367-375 peptide, synthetic; also called SP XBP1 #3M; XBP1 SP 3M
B5: XBP1 184-192 (NISPWILAV) (peptide)
peptide: NISPWILAV
notes: Native peptide of non-spliced XBP1, synthetic; also called XBP1 #2 peptide; XBP1 #2p
B6: XBP1 110-118 (KLLLENQLL) (peptide)
peptide: KLLLENQLL
notes: Native peptide of non-spliced XBP1, synthetic; also called XBP1 #5 peptide
B7: CD138 260-268 (GLVGLIFAV) (peptide)
peptide: GLVGLIFAV
notes: Native peptide of CD138, synthetic; also called CD138 #2p; CD138 #2 peptide

How the values were obtained:
[1] = molecular target: T1, HLA-A2 molecules on the surface of human T2 cells (human); test: T2 peptide-binding assay; HLA-A2 up-regulation on T2 cells, 50 ug/ml peptide plus b2m, flow cytometry with FITC anti-HLA-A2 mAb
T1 construct: MHC class I molecule that the peptides load onto; also called HLA-A2.1; HLA-A*0201

[2] = molecular target: T1, HLA-A2 molecules on the surface of …; test: T2 peptide-binding assay; HLA-A2 up-regulation on T2 cells, 50 ug/mL peptide plus b2m, flow cytometry with PE anti-HLA-A2 mAb
[3] = molecular target: T1, HLA-A2 molecules on the surface of …; test: T2 peptide-binding assay; HLA-A2 up-regulation on T2 cells, flow cytometry
[4] = molecular target: T1, HLA-A2 molecules on the surface of …; test: peptide stability assay on T2 cells after Brefeldin A, flow cytometry with FITC anti-HLA-A2 mAb

| Binder | MFI (HLA-A2 mean fluorescence intensity) [1] [MFI] | binding result [2] | further results |
| --- | --- | --- | --- |
| B1 | 762 | – | – |
| LLVPLLLSL (Native peptide of CS1, synthetic) [CS1-P3: CS1 232-240 (LLVPLLLSL)] | – | binds | – |
| SLFVLGLFL (Native peptide of CS1, synthetic) [CS1-P2: CS1 239-247 (SLFVLGLFL)] | – | binds | – |
| B2 | – | – | binding result [3]: binds |
| B3 | 785 | – | – |
| B4 | – | – | binding result [4]: binds |
| B5 | 720 | – | – |
| TLIYILWQL (Native peptide of CS1, synthetic) [CS1-P4: CS1 9-17 (TLIYILWQL)] | – | binds | – |
| LLREKTHGL (also called XBP1 #1 peptide) [XBP1 117-125 (LLREKTHGL)] | – | – | binding result [3]: binds |
| B6 | – | – | binding result [3]: binds |
| LLLSLFVLGL [CS1-P1: CS1 236-245 (LLLSLFVLGL)] | – | binds | – |
| B7 | 690 | – | – |
